In article PMC3089514 (The Journal of Biological Chemistry, 2011):

T1: EGFP-tagged human orexin receptor 1 (human, UniProt O43613 1-425)
T1 sequence (looked up): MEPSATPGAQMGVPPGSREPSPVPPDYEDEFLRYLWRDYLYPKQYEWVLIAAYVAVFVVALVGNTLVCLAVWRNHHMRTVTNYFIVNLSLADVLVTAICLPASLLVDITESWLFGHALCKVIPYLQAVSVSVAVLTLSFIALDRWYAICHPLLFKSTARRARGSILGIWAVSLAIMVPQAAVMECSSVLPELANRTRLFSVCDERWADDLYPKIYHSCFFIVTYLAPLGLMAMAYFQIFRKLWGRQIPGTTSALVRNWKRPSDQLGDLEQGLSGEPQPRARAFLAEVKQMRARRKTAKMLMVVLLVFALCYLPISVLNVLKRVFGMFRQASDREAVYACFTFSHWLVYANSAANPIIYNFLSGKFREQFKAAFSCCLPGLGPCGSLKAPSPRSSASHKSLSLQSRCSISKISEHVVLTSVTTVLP

T2: EGFP-tagged human orexin receptor 2 (human, UniProt O43614 1-444)
T2 sequence (looked up): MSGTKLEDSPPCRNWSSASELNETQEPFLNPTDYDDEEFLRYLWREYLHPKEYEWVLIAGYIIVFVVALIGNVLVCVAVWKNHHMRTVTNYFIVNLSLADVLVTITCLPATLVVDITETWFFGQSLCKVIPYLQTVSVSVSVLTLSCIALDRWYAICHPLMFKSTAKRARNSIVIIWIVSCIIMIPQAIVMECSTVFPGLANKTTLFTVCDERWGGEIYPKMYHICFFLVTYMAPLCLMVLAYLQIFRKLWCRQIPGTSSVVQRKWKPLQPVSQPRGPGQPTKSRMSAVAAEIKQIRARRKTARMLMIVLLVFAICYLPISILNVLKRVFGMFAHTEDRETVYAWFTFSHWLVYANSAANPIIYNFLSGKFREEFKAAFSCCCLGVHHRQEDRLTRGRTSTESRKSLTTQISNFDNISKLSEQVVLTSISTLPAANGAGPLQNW


Legend:
Experiment in all cases: FRET or BRET
[1] = biological target: T1, EGFP-tagged human orexin receptor 1
[2] = biological target: T2, EGFP-tagged human orexin receptor 2
[3] = biological target: T2, EGFP-tagged human orexin receptor 2; remark: listed apart in the source
[4] = biological target: T1, EGFP-tagged human orexin receptor 1; remark: listed apart in the source

Row | Binder | EC50 of the agonist OxA for receptor-β-arrestin BRET [1] | EC50 of the agonist OxA for receptor-β-arrestin BRET [2] | EC50 of the agonist OxB for receptor-β-arrestin BRET [3] | EC50 of the agonist OxB for receptor-β-arrestin BRET [4]
1 | Rluc-tagged β-arrestin 1 wild type (natural protein, UniProt P17870 1-418, looked up) MGDKGTRVFKKASPNGKLTVYLGKRDFVDHIDLVEPVDGVVLVDPEYLKERRVYVTLTCAFRYGREDLDVLGLTFRKDLFVANVQSFPPAPEDKKPLTRLQERLIKKLGEHAYPFTFEIPPNLPCSVTLQPGPEDTGKACGVDYEVKAFCAENLEEKIHKRNSVRLVIRKVQYAPERPGPQPTAETTRQFLMSDKPLHLEASLDKEIYYHGEPISVNVHVTNNTNKTVKKIKISVRQYADICLFNTAQYKCPVAMEEADDTVAPSSTFCKVYTLTPFLANNREKRGLALDGKLKHEDTNLASSTLLREGANREILGIIVSYKVKVKLVVSRGGLLGDLASSDVAVELPFTLMHPKPKEEPPHREVPEHETPVDTNLIELDTNDDDIVFEDFARQRLKGMKDDKEEEEDGTGSPRLNDR | 777 nM | 376 nM | 334 nM | 
2 | Rluc-tagged phosphorylation-independent β-arrestin 1 mutant R169E (natural protein, UniProt P17870 1-418, looked up) MGDKGTRVFKKASPNGKLTVYLGKRDFVDHIDLVEPVDGVVLVDPEYLKERRVYVTLTCAFRYGREDLDVLGLTFRKDLFVANVQSFPPAPEDKKPLTRLQERLIKKLGEHAYPFTFEIPPNLPCSVTLQPGPEDTGKACGVDYEVKAFCAENLEEKIHKRNSVRLVIEKVQYAPERPGPQPTAETTRQFLMSDKPLHLEASLDKEIYYHGEPISVNVHVTNNTNKTVKKIKISVRQYADICLFNTAQYKCPVAMEEADDTVAPSSTFCKVYTLTPFLANNREKRGLALDGKLKHEDTNLASSTLLREGANREILGIIVSYKVKVKLVVSRGGLLGDLASSDVAVELPFTLMHPKPKEEPPHREVPEHETPVDTNLIELDTNDDDIVFEDFARQRLKGMKDDKEEEEDGTGSPRLNDR | 412 nM | 139 nM | 228 nM | 3770 nM
3 | Rluc-tagged β-arrestin 2 wild type (natural protein, UniProt P32120 1-420, looked up) MGEKPGTRVFKKSSPNCKLTVYLGKRDFVDHLDKVDPVDGVVLVDPDYLKDRKVFVTLTCAFRYGREDLDVLGLSFRKDLFIANYQAFPPTPNPPRPPTRLQERLLRKLGQHAHPFFFTIPQNLPCSVTLQPGPEDTGKACGVDFEIRAFCAKSLEEKSHKRNSVRLVIRKVQFAPEKPGPQPSAETTRHFLMSDRSLHLEASLDKELYYHGEPLNVNVHVTNNSTKTVKKIKVSVRQYADICLFSTAQYKCPVAQVEQDDQVSPSSTFCKVYTITPLLSNNREKRGLALDGKLKHEDTNLASSTIVKEGANKEVLGILVSYRVKVKLVVSRGGDVSVELPFVLMHPKPHDHIALPRPQSAATHPPTLLPSAVPETDAPVDTNLIEFETNYATDDDIVFEDFARLRLKGLKDEDYDDQFC | 719 nM | 215 nM | 384 nM | 
4 | Rluc-tagged phosphorylation-independent β-arrestin 2 mutant R170E (natural protein, UniProt P32120 1-420, looked up) MGEKPGTRVFKKSSPNCKLTVYLGKRDFVDHLDKVDPVDGVVLVDPDYLKDRKVFVTLTCAFRYGREDLDVLGLSFRKDLFIANYQAFPPTPNPPRPPTRLQERLLRKLGQHAHPFFFTIPQNLPCSVTLQPGPEDTGKACGVDFEIRAFCAKSLEEKSHKRNSVRLVIEKVQFAPEKPGPQPSAETTRHFLMSDRSLHLEASLDKELYYHGEPLNVNVHVTNNSTKTVKKIKVSVRQYADICLFSTAQYKCPVAQVEQDDQVSPSSTFCKVYTITPLLSNNREKRGLALDGKLKHEDTNLASSTIVKEGANKEVLGILVSYRVKVKLVVSRGGDVSVELPFVLMHPKPHDHIALPRPQSAATHPPTLLPSAVPETDAPVDTNLIEFETNYATDDDIVFEDFARLRLKGLKDEDYDDQFC | 401 nM | 162 nM | 278 nM | 3790 nM
